We go through 3 substances from patent US9580512.

This assay deals with CD55 (UniProt P08174). The assay is described as follows: cell-based or functional assay.
Chain of UniProt P08174 (P08174 35-353 limits assumed): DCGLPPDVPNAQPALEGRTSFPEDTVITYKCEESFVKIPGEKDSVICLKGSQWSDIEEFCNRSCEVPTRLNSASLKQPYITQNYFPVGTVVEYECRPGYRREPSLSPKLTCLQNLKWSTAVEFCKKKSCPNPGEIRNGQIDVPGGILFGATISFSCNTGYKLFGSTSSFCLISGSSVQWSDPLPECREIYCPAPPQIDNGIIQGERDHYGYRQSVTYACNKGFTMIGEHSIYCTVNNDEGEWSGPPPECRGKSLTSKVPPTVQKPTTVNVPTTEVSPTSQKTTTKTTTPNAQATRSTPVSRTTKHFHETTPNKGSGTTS

In the case of BRIC 220 (antibody), the C3b deposition on 791T cells, mean linear fluorescence (MLF) stood at 200 MLF.
As for monoclonal antibody 791T/36, the C3b deposition on 791T cells, mean linear fluorescence (MLF) was found to be 520 MLF and the increase in C3b deposition was determined as 250%.
BRIC 216 (antibody) displayed a C3b deposition on 791T cells, mean linear fluorescence (MLF) of 350 MLF.
